“And” between values parts separate entries of the source, which are not always exact repeats. Equal values may be shown once.
B1: SmBiT-FAM237A (ligand)
chain: HSQTDLLALSQADPQCWESSSVLLLEMWKPRVSNTVSGFWDFMIYLKSSENLKHGALFWDLAQLFWDIYVDCVLSRNHGL
B2: mature human FAM237A (family with sequence similarity 237 member A) (ligand)
chain: B1 chain
modifications: amidated C-terminus; one intramolecular disulfide bond

What was measured:
Test in all cases: split reporter
[1] = target: T1, sLgBiT-GPR83 (N-terminally sLgBiT-fused mature human GPR83) (human, UniProt Q9NYM4-1 17-423)
T1 sequence (Q9NYM4 17-423): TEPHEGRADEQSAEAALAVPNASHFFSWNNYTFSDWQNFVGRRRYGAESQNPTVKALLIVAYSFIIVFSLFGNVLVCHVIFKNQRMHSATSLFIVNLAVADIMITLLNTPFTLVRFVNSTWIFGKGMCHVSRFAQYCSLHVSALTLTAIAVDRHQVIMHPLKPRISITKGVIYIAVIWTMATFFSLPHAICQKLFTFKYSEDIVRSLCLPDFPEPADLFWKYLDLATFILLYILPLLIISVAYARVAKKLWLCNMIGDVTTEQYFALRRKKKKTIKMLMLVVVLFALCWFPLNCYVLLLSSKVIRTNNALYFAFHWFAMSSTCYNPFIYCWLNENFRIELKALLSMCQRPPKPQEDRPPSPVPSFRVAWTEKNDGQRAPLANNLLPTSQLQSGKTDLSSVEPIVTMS

[2] = target: T1, sLgBiT-GPR83 (N-terminally sLgBiT-fused …); remark: listed apart in the source
[3] = target: T1, sLgBiT-GPR83 (N-terminally sLgBiT-fused …); remark: listed apart in the source

Binder	association half-life [1] [min]	dissociation half-life [1] [min]	Kd [2] [µM]	IC50 [3]
B1	~3	~7.5	~0.07	–
B2	–	–	–	0.0135 µM and 0.0129 µM and 0.0169 µM

From publication doi:10.1101/2022.09.27.509696 (bioRxiv, 2022)
